Legend:
[1] = system: Pseudomonas aeruginosa strain 1292; details: 10 μg/mL, 15 minutes, 100% human serum
Source text: Samples were stained using the Live/Dead Cell Viability Kit (ThermoFisher) and examined by both differential interference contrast (DIC) and fluorescence microscopy.

P. aeruginosa = assay: MIC, modified CLSI broth microdilution in CAA medium without or with […] human serum (Table 4); assay type: cell-based, Pseudomonas aeruginosa; for CAA/HuS MIC: CAA supplemented with 2.5% human serum
Source text: 2015. […] Clinical and Laboratory Standards Institute, Wayne, Pa.

[2] = system: biofilms formed by P. aeruginosa strain ATCC 17646; details: strain ATCC 17646 biofilm
Method: Biofilms are then washed and treated with e.g., a 2-fold dilution series of the lysin in TSBg at e.g., 37° C. for 24 hours. After treatment, wells are washed, air-dried at e.g., 37° C. and stained with e.g., 0.05% crystal violet for 10 minutes.

Row | Molecule | live/dead bacteria by microscopy [1] | CAA MIC (P. aeruginosa; CAA medium, no human serum) [µg/mL] | CAA/HuS MIC (P. aeruginosa; CAA supplemented with […] human serum) [µg/mL] | MBEC [2] [µg/mL]
1 | GN121: variant lysin (SEQ ID NO: 175), also disclosed in WO 2019/118632 (protein) MTYTLSKRSLDNLKGVHPDLVAVVHRAIQLTPVDFAVIEGLRSVSRQKELVAAGASKTMNSRHLTGHAVDLAAYVNGIRWDWPLYDAIAVAVKAAAKELGVAIVWGGDWTTFKDGPHFELDRSKYRRKKTRKRLKKIGKVLKWI | a reduction of live bacteria |  |  | 
2 | GN370: lysin-AMP construct: MIDR, FIRL and NPTH moieties N-terminal to GN202 lysin (SEQ ID NO: 44) (protein) MIDRFIRLNPTHGPRRPRRPGRRAPVRTSQRGIDLIKSFEGLRLSAYQDSVGVWTIGYGTTRGVTRYMTITVEQAERMLSNDIQRFEPELDRLAKVPLNQNQWDALMSFVYNLGAANLASSTLLDLLNKGDYQGAADQFPHWVNAGGKRLDGLVKRRAAERALFLEPLS |  | 16000 | 4000 | 1
